Results taken from the supplement of paper PMC9170038.

Test system: MS2 coat protein
Test: apparent KD of MS2 coat protein; designed switch direction (-1 OFF switch, 1 ON switch): 1; higher = weaker reporter binding
Method in brief: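 Three titration conditions were used: no input, 200 uM small-molecule ligand, and an oligonucleotide input. In each, SNAP-549-labelled MS2 coat protein was raised from 0.7 or 1.5 nM, doubling, to 3 µM over designed RNA switches transcribed on Illumina chips by stalled E. coli RNA polymerase. Curve fits of normalised cluster fluorescence gave values whose per-design median over clusters is the apparent KD.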

[1] = input ligand: microRNA oligo, concentration not stated

| Sequence | apparent KD of MS2 coat protein (input ligand: FMN 200 uM) [nM] | apparent KD of MS2 coat protein [1] [nM] | apparent KD of MS2 coat protein (input ligand: none) [nM] |
| --- | --- | --- | --- |
| UUAAUUUACUGAGGAUAUCGUGUCGACUGAGUUGACAUGAGGAUCACCCAUGUGAGAAGUGGUAUCGAGAAGGCAGUAUUCAUA [JR_SSNG2_Sub023] (Eterna round: R96, puzzle: Same State NG 2) | 16.1 | 28.9 | 42 |
| UUAGAAUUGCAAGGAUAUCUAAUUUAGAUAGUAAGAGAAGGUGCUUUAUAGUUACAUGAGGAUCACCCAUGUUUUUUUGUUUAU [JR_SSNG1_Sub059] (Eterna round: R96, puzzle: Same State NG 1) | – | 26.5 | – |
| UUAUCAUUGCAAGGAUAUUGAUUACAUGAGGAUCACCCAUGUUAAUGAACACUAUGUACUACUAACAAGAAGGUGCUAUAAAUU [JR_SSNG2_Sub041] (Eterna round: R96, puzzle: Same State NG 2) | 35.1 | 28 | 34.3 |
| UUAUUAUUUACAUGAGGAUCACCCAUGUUUUUAUGUCAGAGAUAGGAUAUAGAAGUCUCGUUUUACUAGAAGGAUCUUUUUAUU [JR_SSNG3_Sub083] (Eterna round: R96, puzzle: Same State NG 3) | 21.2 | 16.7 | 22.8 |
| UUCCCAGCGGGAGGAUAUGGUGCCUUGUUGGUGCUAGAAGGUCCAACAUGAGGAUCACCCAUGUGGGAGUGGUCGAGAGACCUC [SS NG10LRO10] (Eterna round: R96, puzzle: Same State NG 1) | 307 | 238 | 427 |
| UUCGAGUUGCAAGGAUAUCUUAUUUAGAUUUUAAGAGAAGGUGCUUCACAGCUACAUGAGGAUCACCCAUGUCUUUCUUCUUAU [JR_SSNG1_Sub064] (Eterna round: R96, puzzle: Same State NG 1) | – | 22.6 | – |
| UUCUGACAUGAGGAUCACCCAUGUGAGACAUAUGGAGAAUCUCAGGAUAUCCUGAGGAUCACCCAGGAGAAGGGAGAUCCGACC (Eterna round: R96, puzzle: Same State NG 3) | 32 | 43.7 | 45.7 |
| UUGAAGAAUUAAGGAUAUCGAGUACAUAUGUUAAACAUGAGGAUCACCCAUGUGGGUUGCGGUAUCGAGAAGGUAAAUUACAAG [JL SSNG2 1.42] (Eterna round: R96, puzzle: Same State NG 2) | 30.2 | 25.6 | 36.5 |
| UUGAAGAAUUAAGGAUAUCGAGUCAAGAUGUUAAACAUGAGGAUCACCCAUGUGGGUUGCGGUAUCGAGAAGGUAAAUAAGAAG [Mat - Same State NG 2 - JL mod - D54] (Eterna round: R96, puzzle: Same State NG 2) | 44.3 | 29.6 | 44.8 |
| UUGAAGAAUUAAGGAUAUCGAGUCAAGAUGUUAAACAUGAGGAUCACCCAUGUGGGUUGCGGUAUCGAGAAGGUAAAUUACAAG [JL SSNG2 1.41] (Eterna round: R96, puzzle: Same State NG 2) | 34.8 | 26.9 | 34.9 |
| UUGAAGAAUUAAGGAUAUCGAGUCGUCUAAUUAAACAUGAGGAUCACCCAUGUGGGUUGCGGUAUCGAGAAGGUAAAUUACUAA [JL JR Sub099 mod 1] (Eterna round: R96, puzzle: Same State NG 2) | 14.3 | 20.6 | 32.2 |
| UUGAAGAAUUAAGGAUAUCGAGUCGUCUAAUUAAACAUGAGGAUCACCCAUGUGGGUUGUGGUAUCGAGAAGGUAAAUUACUAA [JR_SSNG2_Sub099] (Eterna round: R96, puzzle: Same State NG 2) | 74.4 | 65.3 | 95.1 |
| UUGAAGAAUUAAGGAUAUUGAAUACAUAUGUUUAACAUGAGGAUCACCCAUGUGGGUUGCGGUGUCGAGAAGGUAAAUUAAUAG [Mat - same State NG 2 - JL mod - D94] (Eterna round: R96, puzzle: Same State NG 2) | 221 | 191 | 291 |
| UUGAAGAAUUAAGGAUAUUGAUUACAUAUGUAUAACAUGAGGAUCACCCAUGUGGGUUGCGGUAUCGAGAAGGUAAAUUACUAG [Mat - same State NG 2 - JL mod - D75] (Eterna round: R96, puzzle: Same State NG 2) | 145 | 98.5 | 98.2 |
| UUGAGGUGUCAAGGAUAUGCUACCGUUUCGGUAGCAGAAGGUGAUCACAUGAGGAUCACCCAUGUAUGCAUGCGUGAGCGUGCU [JL SSNG1 3.61] (Eterna round: R96, puzzle: Same State NG 1) | – | 23.4 | – |
| UUGAUGAAUUAAGGAUAUCGAGUCGUCUAAUUAAACAUGAGGAUCACCCAUGUGGGUUGUGGUAUCGAGAAGGUAAAUUACUUA [JR_SSNG2_Sub098] (Eterna round: R96, puzzle: Same State NG 2) | 66.2 | 67.5 | 92.6 |
